{"source": "paper doi:10.1101/2022.11.30.518485", "about": "(bioRxiv, 2022)", "key": {"[1]": {"molecular_target": "tau pathology in PSP and AD (Homo sapiens, UniProt P10636)", "sequence (P10636 whole entry)": "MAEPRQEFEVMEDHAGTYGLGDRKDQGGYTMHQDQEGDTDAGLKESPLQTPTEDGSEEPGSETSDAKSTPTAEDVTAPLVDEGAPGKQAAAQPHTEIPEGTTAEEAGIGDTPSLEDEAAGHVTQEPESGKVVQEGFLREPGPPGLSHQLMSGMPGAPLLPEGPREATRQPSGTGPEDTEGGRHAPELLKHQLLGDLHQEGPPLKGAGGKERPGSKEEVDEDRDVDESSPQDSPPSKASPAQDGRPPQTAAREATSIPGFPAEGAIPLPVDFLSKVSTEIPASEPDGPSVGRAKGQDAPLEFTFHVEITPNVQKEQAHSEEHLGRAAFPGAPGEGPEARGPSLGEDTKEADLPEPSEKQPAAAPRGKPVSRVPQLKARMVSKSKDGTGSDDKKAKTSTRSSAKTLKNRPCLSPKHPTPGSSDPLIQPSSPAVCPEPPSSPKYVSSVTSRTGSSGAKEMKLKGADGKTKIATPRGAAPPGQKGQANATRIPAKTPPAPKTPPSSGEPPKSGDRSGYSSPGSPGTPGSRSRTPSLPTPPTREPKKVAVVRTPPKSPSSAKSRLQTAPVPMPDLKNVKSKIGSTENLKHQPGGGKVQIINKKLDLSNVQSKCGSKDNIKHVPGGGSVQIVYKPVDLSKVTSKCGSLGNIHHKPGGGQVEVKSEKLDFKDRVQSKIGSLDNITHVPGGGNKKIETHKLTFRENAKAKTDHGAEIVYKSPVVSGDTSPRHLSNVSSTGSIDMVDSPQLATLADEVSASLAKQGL", "experiment": "immunostaining of cells or tissue"}, "[2]": {"molecular_target": "Abeta in AD (senile plaques) (Homo sapiens, UniProt P05067)", "experiment": "immunostaining of cells or tissue"}}, "data": [{"binder": "306C7B3 (native IgG purified from the hybridoma clone) (antibody, V domains shown) VH: EVQLVESGGGLVKPGGSRKLSCAASGFTFSDHGMHWVRQAPEKGLEWVAYISSGSSTIYYADTVKGRFTISRDNAKNTLFLQMTSLRSEDTAMYYCARSYIPYWGQGTLVTVSA VL: DVVMTQTPLSLPVSLGDQASISCRSSQSLVHSNGNTYLHWYLQKPGQSPKLLIYKVSNRFSGVPDRFSGSGSGTDFTLKISRVEAEDLGVYFCSQSTHVPWTFGGGTKLEIK", "values": [{"measurement": "binding result", "setting": "[1]", "value": "no binding (tested: 1:10000 dilution)"}, {"measurement": "binding result", "setting": "[2]", "value": "no binding (tested: 1:10000 dilution)"}]}]}
